Non-standard residues stand in square brackets, D forms with d. No end group written: not given here. pS = N[C@@H](COP(=O)(O)O)C(=O)O
Experiments:
[1] = test system: pIκBα-associated proteins (p54, p58, p61, 64 kD); assay: Association of 35S-labeled HeLa lysate proteins with immuno-bound pIκBα/NF-κB complex (SDS-PAGE, autoradiography); format: binding, human; conditions: peptide added to radiolabeled HeLa lysate, FIG. 7B
Protocol: HeLa extract (250 mg) was incubated with 250 μl anti-p65 immunobeads. Following four washes in buffer A (1M KCl, 0.5% NP40, 50 mM Tris buffer pH 7.6, 1 mM DTT) and one wash in buffer B (50 mM Tris buffer, pH 7.6, 1 mM DTT), half the beads were subject to in vitro phosphorylation with IKK and half underwent mock-phosphorylation. The beads were washed twice in buffer A and once in buffer B, agitated with 100 mg HeLa extract in the presence of 1 μm okadaic acid for 30 min at 25° C., washed four times with buffer A, once in buffer A and eluted with 1 mg/ml p65 peptide. A similar experiment was performed with 10 mg ^35 S-metabolically-labeled HeLa cell lysate (100 μCi/ml Met/Cys for 8 hours) and 25 μl p65-immunobeads. Eluate-fractions derived from both the hot and cold lysates were mixed, boiled in SDS-sample buffer and analyzed by 7.5% SDS-PAGE and autoradiography. Gel slices corresponding to the autoradiogram signals were excised and their protein-bands sequenced by mass-spectrometry, as described below.
To circumvent the possible masking of the putative pIκB-ubiquitin ligase, we replaced the ligase source with ^35S-biosynthetically-labeled HeLa lysate and traced the IκBα-associated proteins by SDS-PAGE analysis and autoradiography (FIG. 7B). In parallel, the various fractions were tested for their ubiquitin-ligase capacity. […]

[2] = test system: ubiquitin-ligase activity associated with the pIκB-complex; assay: Recruitment of ubiquitin-ligase activity from HeLa lysate to IKK2-EE phosphorylated IκBα/NF-κB complex; format: biochemical, human; conditions: peptide included in incubation with HeLa lysate, FIG. 6
Protocol: Following immunoprecipitation of ^35S-labeled IκBα/NF-κB complexes from a non-stimulated HeLa lysate previously incubated with recombinant ^35S-labeled IκBα, the complexes were phosphorylated by the recombinant IKK2-EE, eluted with the p65 cognate peptide and subjected to in vitro ubiquitination. After incubation with IKK2-EE, nearly all of the ^35S-IκB was phosphorylated. […] Therefore, IκB phosphorylation by IKK was not sufficient to promote its ubiquitination in the presence of E1 and E2. Conceivably, pIκBα ubiquitination requires an additional component of the HeLa lysate that was not co-immunopurified from non-stimulated cells.
To confirm this hypothesis, immuno-bound IκBα/NF-κB complexes were incubated with a non-stimulated HeLa lysate, either directly or following IKK2-EE phosphorylation, washed extensively with high-salt buffer and eluted with the p65 peptide. Indeed, incubation of the phosphorylated IκB complexes (FIG. 6 lane 3), but not of the non-phosphorylated ones (lane 1), with the HeLa lysate, provided the pIκB-ligase component(s) necessary for pIκBα conjugation. No signal was obtained when E1 or E2 were omitted from the reaction, confirming that the signal at the top of the gel represents poly-ubiquitin IκBα-conjugates (lanes 5, 6). […]

[3] = test system: pIκBα-associated ubiquitin-ligase; assay: In vitro ubiquitination of pIκBα/NF-κB complex immunopurified from TNFα-stimulated HeLa cells with E1 and UBC5C; format: biochemical, human; conditions: Bestatin 40 μg/ml, FIG. 5
Protocol: To further study the recruitment of components of the ubiquitin machinery by phosphorylated IκBα-complexes, pIκBα/NF-κB complexes were purified from proteasome inhibited, TNF-α stimulated HeLa cells, and their ubiquitination potential was evaluated. HeLa cells were pre-incubated with the proteasome inhibitor ALLN (150 μM) for 1 hour and stimulated for 10 minutes with TNFα. […]
The immunopurified fraction was supplemented with various components of the ubiquitin system and subjected to in vitro ubiquitination. […] The reaction mix was then boiled in SDS-buffer and the sample analyzed by SDS-PAGE (8.5%) and phospho-imaging.
To determine the source of the IκBα-conjugates, the ubiquitination reactions were performed in the presence of a pIκBα peptide (pp12; CDRHDS[PO3]GLDS[PO3]; SEQ ID NO:22) (lane 7) or a serine/glutamic-acid substituted IκBα peptide (p12S/E) (lane 8). Both peptides were synthetic, purchased from Alfa-Diagnostic, Inc., and then HPLC-purified, analyzed by mass spectrometry, verified for the predicted structure and proven to be over 85% pure. […]

β-TrCP = target: T1, β-TrCP (Homo sapiens, UniProt Q9Y297); assay: Peptide competition of β-TrCP binding to pIκBα; conditions: FIG. 11B
T1 construct: made in house; host or cells: transfected 293 (293T) cells, immunoprecipitated through FLAG
T1 sequence (P63208 whole entry partner, one chain of several): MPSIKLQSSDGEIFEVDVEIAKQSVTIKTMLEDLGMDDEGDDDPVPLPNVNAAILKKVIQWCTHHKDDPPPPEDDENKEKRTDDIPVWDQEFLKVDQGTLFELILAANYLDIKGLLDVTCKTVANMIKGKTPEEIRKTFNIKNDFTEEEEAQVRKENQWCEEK
Protocol: (§1) FIGS. 11A-11C are Western blots illustrating binding and ubiquitination specificity of E3 ubiquitin ligase family members. Within these figures, mβ-TrCP indicates mouse β-TrCP, hβ-TrCP indicates human β-TrCP, Δβ-TrCP indicates human β-TrCP with a deletion of the F box region and Slimb indicates the Drosophila Slimb protein. FIG. 11A illustrates selective binding to pIκBα. Proteins were immunoprecipitated through a FLAG epitope from transfected 293T cells, incubated with immunopurified IκBα/NF-κB complex, which had been treated (−/+IKK) as indicated and the bound material was analyzed by Western blotting with the indicated antibodies. […] FIG. 11C illustrates in vitro ubiquitination of pIκBα by the E3 family member proteins. Immunopurified FLAG-tagged proteins were incubated with ^35 S-labeled IκBα/NF-κB complexes, treated (−/+IKK) as indicated and subject to ubiquitination in the presence of ATPγS, ubiquitin. E1 and UBC5C. The IκBα substrate (composed of full-length and two degradation products), pIκBα-polyubiquitin conjugates and molecular size markers are indicated on the left.
The ability of these proteins to bind pIκBα specifically and assist in its ubiquitination was examined in a cell-free system. […] The bound material was analyzed by Western blotting with anti-IκBα and anti-FLAG antibodies. […]

pIκBα = target: T2, pIκBα (Homo sapiens, UniProt P25963); assay: Binding of immobilized FLAG-tagged E3 family members to IκBα/NF-κB complex (Western blot); conditions: FIG. 11A
T2 construct: The IκBα/NF-κB complex was immunopurified from HeLa cells; endogenous in cells; host or cells: HeLa cells
T2 sequence (P25963 whole entry): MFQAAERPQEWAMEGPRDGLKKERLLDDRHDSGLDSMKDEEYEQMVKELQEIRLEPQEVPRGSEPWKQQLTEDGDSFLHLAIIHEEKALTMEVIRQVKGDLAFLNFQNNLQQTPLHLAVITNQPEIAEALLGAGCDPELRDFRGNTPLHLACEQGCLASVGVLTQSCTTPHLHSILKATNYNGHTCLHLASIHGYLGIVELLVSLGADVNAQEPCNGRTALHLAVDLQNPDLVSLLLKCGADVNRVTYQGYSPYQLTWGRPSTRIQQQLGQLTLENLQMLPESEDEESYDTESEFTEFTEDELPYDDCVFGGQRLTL
T2 sequence (Q04206 whole entry partner): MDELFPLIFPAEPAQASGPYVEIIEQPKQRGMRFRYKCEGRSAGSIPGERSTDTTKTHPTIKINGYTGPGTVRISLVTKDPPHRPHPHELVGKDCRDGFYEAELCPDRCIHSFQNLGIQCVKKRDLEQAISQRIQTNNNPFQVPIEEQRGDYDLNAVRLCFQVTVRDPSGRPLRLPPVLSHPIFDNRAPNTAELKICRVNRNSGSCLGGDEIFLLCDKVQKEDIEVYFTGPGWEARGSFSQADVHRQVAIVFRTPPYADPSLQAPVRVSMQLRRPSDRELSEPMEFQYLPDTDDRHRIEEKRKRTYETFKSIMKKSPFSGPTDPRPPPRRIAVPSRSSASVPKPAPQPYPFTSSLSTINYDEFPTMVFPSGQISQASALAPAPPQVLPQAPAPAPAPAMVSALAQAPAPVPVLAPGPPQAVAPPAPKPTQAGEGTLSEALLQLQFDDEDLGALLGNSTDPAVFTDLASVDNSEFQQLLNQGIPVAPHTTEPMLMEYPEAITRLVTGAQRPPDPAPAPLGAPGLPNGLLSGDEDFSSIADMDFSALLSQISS
Protocol: as §1
The ability of these proteins to bind pIκBα specifically and assist in its ubiquitination was examined in a cell-free system. The IκBα/NF-κB complex was immunopurified from HeLa cells and the immune complex was either phosphorylated with IKK2-EE or mock-phosphorylated as described above. It was then incubated with the following immobilized FLAG-tagged E3 family members immunoprecipitated from transfected 293 cells: mouse β-TrCP (mβ-TrCP), human β-TrCP (hβ-TrCP), human β-TrCP with a deletion of the F box region residues 122-168 (Δβ-TrCP) and the Drosophila Slimb protein. The bound material was analyzed by Western blotting with anti-IκBα and anti-FLAG antibodies. […] Furthermore, β-TrCP binding was abrogated by a peptide representing the pIκBα recognition motif (pp10; DRHDS(PO3)GLDS(PO3)M (SEQ ID NO:29); see FIG. 11B, lane 3), but not by the control peptide (lane 4), specifying the site of pIκBα recognition of the conserved DS(PO3)GLDS(PO3) (SEQ ID NO:30) sequence.

[4] = test system: NF-κB activation in Jurkat cells; assay: κB-dependent luciferase assay in P/I-stimulated Jurkat cells; format: cell-based; conditions: transient over-expression in stimulated Jurkat cells
From the text: FIGS. 12A and 12B illustrate inhibition of IκBα degradation and NF-κB activation by overexpression of Δβ-TrCP, a dominant negative molecule. FIG. 12A is a graph depicting the results of a κB-dependent luciferase assay in P/I-stimulated Jurkat cells transfected with κB-Luc reporter plasmid and the indicated expression vectors (i.e., from left to right, vector alone, vector encoding human β-TrCP, vector encoding human β-TrCP with a deletion of the F box region and vector encoding Drosophila Slimb protein). NF-κB activity is shown as relative (fold) luciferase activity, the non-stimulated empty FLAG vector being the reference (single-fold). FIG. 12B depicts the results of western blot analysis of IκBα of phorbol-ester and Ca^++ ionophore [P/I]-stimulated and non-stimulated Jurkat cells transfected with an empty FLAG vector or Δβ-TrCP. The post-stimulation interval (min) is indicated.

Q: Which “association of distinctive 35S-protein bands with pIκBα” value [1] does the source give for “pp12: pIκBα peptide CDRHDS[PO3]GLDS[PO3]; SEQ ID NO:22 (CDRHD[pS]GLD[pS]; listed as Homo sapiens)” here?
A: three bands were eliminated

Q: And the “ubiquitin-ligase activity associated with the pIκB-complex” value [2]?
A: abrogated

Q: And the “formation of polyubiquitin-IκBα conjugates” value [3]?
A: abolished

Q: Which “effect of peptide on β-TrCP-pIκBα binding” value (β-TrCP) does the source give for “pp10: peptide representing the pIκBα recognition motif, DRHDS(PO3)GLDS(PO3)M, SEQ ID NO:29 (DRHD[pS]GLD[pS]M; listed as Homo sapiens)” here?
A: abrogated

B1: hβ-TrCP: FLAG-tagged human β-TrCP, E3 family member (protein)
chain: MDPAEAVLQEKALKFMNSSEREDCNNGEPPRKIIPEKNSLRQTYNSCARLCLNQETVCLASTAMKTENCVAKTKLANGTSSMIVPKQRKLSASYEKEKELCVKYFEQWSESDQVEFVEHLISQMCHYQHGHINSYLKPMLQRDFITALPARGLDHIAENILSYLDAKSLCAAELVCKEWYRVTSDGMLWKKLIERMVRTDSLWRGLAERRGWGQYLFKNKPPDGNAPPNSFYRALYPKIIQDIETIESNWRCGRHSLQRIHCRSETSKGVYCLQYDDQKIVSGLRDNTIKIWDKNTLECKRILTGHTGSVLCLQYDERVIITGSSDSTVRVWDVNTGEMLNTLIHHCEAVLHLRFNNGMMVTCSKDRSIAVWDMASPTDITLRRVLVGHRAAVNVVDFDDKYIVSASGDRTIKVWNTSTCEFVRTLNGHKRGIACLQYRDRLVVSGSSDNTIRLWDIECGACLRVLEGHEELVRCIRFDNKRIVSGAYDGKIKVWDLVAALDPRAPAGTLCLRTLVEHSGRVFRLQFDEFQIVSSSHDDTILIWDFLNDPAAQAEPPRSPSRTYTYISR
modifications: left off: small tags and cut ends
notes: FLAG-tagged human β-TrCP, E3 family member
Q: For B1, which “relative binding of IκBα / pIκBα” value (pIκBα; comparison between family members) is on record?
A: far better than the highly homologous Drosophila protein

Q: What about the “binding to IKK-phosphorylated versus mock-phosphorylated IκBα” value (pIκBα; FLAG-tagged protein from transfected 293 cells) of the same molecule?
A: exclusively bound IKK-phosphorylated, but not mock-phosphorylated, IκBα

Q: And the “activation of NF-κB” value [4]?
A: not inhibitory
